Results taken from the nanobody polyreactivity screen of Harvey et al. (2022).

Assay: yeast display, Sf9 membrane polyspecificity reagent, FACS + sequencing; frameworks hold sequencing errors
How it was run: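 Genes from sorted yeast were amplified by colony PCR, read by MiSeq 2 × 250 sequencing and filtered on CDR length. These cells carried a synthetic nanobody library in Saccharomyces cerevisiae BJ5465 and were sorted by FACS into low and high (top ~1%) gates on anti-HA and streptavidin fluorescence. Polyreactivity is labelled according to the gate of origin.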

Row | Sequence | polyreactivity (PSR sort gate)
1 | QVQLVDSGGGLVQAGGSLRLICDASGFIFFAYAMGWYRQAPGKERELVAVITSGGGTNYADSVKGRFTFSRDNAKNTVYLQMTSLKPEDTAVYYCNADYFFASTEFYYWGQGTQVTVSS | low polyreactivity
2 | QVQLVDSGGGLVQAGGSLRLIFAASGITQPYYAMGWYRQAPGKERELVAGISSRGGSTYYADSVKGRFTISRDNAKNTVYLQMNSLIPEDTAVYYCAAKVASTRLGPAYGYWGQGTQVTLSS | high polyreactivity
3 | QVQLVDSGGGLVQAGGSLRLRGAASGRIFFYYAMGWYRQAPGKERELLAAITYSVDSTYYADSVKGRFTISRDNAKNTVYLQMNSLKPEDTAVYYCAADDIHYVIHAYYSSGVDYWGQGTQVTVSS | low polyreactivity
4 | QVQLVDSGGGLVQAGGSLRLSCAACGSTFVLYGMGWYRQAPGKQRELVADITGGGSSTYYADSVKGRFTISRDYAKNTVYLQMNSLKPEDTAVYYCNADYYPFYWIEPATPYLGFDYWGQGTQVTVSS | low polyreactivity
5 | QVQLVDSGGGLVQAGGSLRLSCAASGAIFDIYGMGWYRQAPGKERELVASISGGAGSTNYADSVKGRFTISRDNAKNTVYLQMNSLKPEDTAVYYCAAEVYVPDYFQHKFDVEYEYWGHGTQVTVSS | low polyreactivity
6 | QVQLVDSGGGLVQAGGSLRLSCAASGFIFAHYAMGWYRPAPGKESELVAAISSRGGSTYYADSVKGRFTISRDNAKNTVYLQMNSLKPEDTAVYYCAKARHRPARGYEYWGQGTQVTVSS | high polyreactivity
7 | QVQLVDSGGGLVQAGGSLRLSCAASGFIFAPYAMGWYRQAPGKERELVAAISSSGGSTYYADSVKGRFTISRDNAKNTVYLQMNSLKPEDTAVYYCAVDYLTLTYEYYYWGQGTQVTVSS | low polyreactivity
8 | QVQLVDSGGGLVQAGGSLRLSCAASGFIFPLYTMGWSRQAPGKERELVAAITGSGGSTYYADSVKGRFTISRDNEKNTVYLQMNSLKPEDSAVYYCAKDYTYGMDWGQGTQVTVSS | low polyreactivity
9 | QVQLVDSGGGLVQAGGSLRLSCAASGFIFRRNAMGWYRQAPGKERELVAAITGGGGSTYYADSVKGRFTISRDNAKNTVYLQMNSLKPEDTAVYYCNALPARRRWQVDYWGQGTQVTVSS | high polyreactivity
10 | QVQLVDSGGGLVQAGGSLRLSCAASGFIFRRYAMGWYRQAPGKERDLVAVIRSSGGSTYYADSVKGRFTISRDNAKNTVYLQMNSLKPEDTAVYYCAARSILGYRSYGYWGEGTQVTVSS | high polyreactivity
11 | QVQLVDSGGGLVQAGGSLRLSCAASGFIFRYYAMGWNRQATGKERELVAAISWSTDNTYYADSVKGRFTILRDNAKNTVYLQMNSLKPEDTAVYYCAADEGWYGPKLDYWGQGTQVTVSS | low polyreactivity
12 | QVQLVDSGGGLVQAGGSLRLSCAASGFTFRYYAMGWYRQAPGKERELVAAISSSGTRTYYADSVKGRFTISRDNAKTTVYLQMNSLKPEDTAVYYCNAVSPTSTVDYWGQGTQVTVSS | high polyreactivity
13 | QVQLVDSGGGLVQAGGSLRLSCAASGFTFTLNAMGWYRQAPGKERELVAGISSGGSTNYADSVKGRFTISRDNAKNTVYLQMNSLKPEDTAVYYCAADRGYVWRYDYWGEGTQVTVSS | low polyreactivity
14 | QVQLVDSGGGLVQAGGSLRLSCAASGFTFTQYAMAWYIQAPGKERELVASIRSGGSTKYADSVKGRFTISRDNAKNTVYLQMISLKPEDTAVYYCAKDRYHISFFYQMEFWGQGTQVTVSS | low polyreactivity
15 | QVQLVDSGGGLVQAGGSLRLSCAASGFTFVPYAMGWYRQAPGKERETNADSVKGRFTISRDNAKNTVYLQMNSLKPEDTAVYYCAAGGYGPYDYWGQGTQVTVSS | low polyreactivity
16 | QVQLVDSGGGLVQAGGSLRLSCAASGFTFWRYVMGWYRQAPGKERELVAAISGRGSRTFYADSVKGRFTISRDNAKNTVYLQMNSLKPEDTAVYYCNAYPGTSGTLYVTPYDYWGQGSQVTVSS | high polyreactivity
17 | QVQLVDSGGGLVQAGGSLRLSCAASGFTITRNVMGWYRQAHGKERELVAAITSGGNTNYADSVKGRFTISRDNAKNTVYLQMNSLKPEDTAVYYCATSYHRRYDYWGQGTQVTVSS | low polyreactivity
18 | QVQLVDSGGGLVQAGGSLRLSCAASGGLFIVNDMGWYIQAPGKEMELVAAITSGGGKNYADSVKGRFTISRDNAKNTVYLQMNSLKPEVTAVYYCARDTYRQIVSNESYGFWGHGTQVTVSS | low polyreactivity
19 | QVQLVDSGGGLVQAGGSLRLSCAASGIIFAYNAMGWYRQAPGKERELVAAITSGTSTHYADSVKGRFTISRDNAKNSVYLHINSLNPEDTAVYYCNADYFFEFDYWGQGTQVTVSS | low polyreactivity
20 | QVQLVDSGGGLVQAGGSLRLSCAASGIIFRTNAMGWYRQAPGKERELVAAIRWSDGSTYYADSVKGRFTISRDNAKNTVYLQMNSLKPEDTAVYYCNAASQYTFDCSFDDWGQGTQVTVSS | low polyreactivity
21 | QVQLVDSGGGLVQAGGSLRLSCAASGISFGVYAMGWYRQAPGKERELVAAISRRGASTYYADSVKGRFTISRDNAKTTVYLQMNILNPEDTAVYYCPAYLARRQYDYWGQGTKVTVSS | high polyreactivity
22 | QVQLVDSGGGLVQAGGSLRLSCAASGITFGYYAMGWYRQAPGKERELVAAISFTGASTYYADSVKGRFTISRDNAKNTVYLQMYSLKPEDTAVYYCAADPYVPYHDFLSGFDYWGQGTQVTVSS | low polyreactivity

Row | Sequence | polyreactivity (PSR sort gate)
23 | QVQLVDSGGGLVQAGGSLRLSCAASGITFWWYAMGWSRPAPGKEREVVAAISQRGGTYYADSVKGRFTISRDKAKNTVFLQMKSLKPDDTAVDSCAAVVYSRYAPYSAQYDDWGQGTQVTVSS | high polyreactivity
24 | QVQLVDSGGGLVQAGGSLRLSCAASGITIPSYTMGWYRQGPGKERELVATIRNGGSTYYADSVKGRFTISRDNAKNTVYLQMNSLIPEDTAVYYCAAVPLWDYIFFYYLLYDYWGQGTQVTVSS | low polyreactivity
25 | QVQLVDSGGGLVQAGGSLRLSCAASGLIFSYNAMGWYRQAPGKERELVATIRRVGSTNYADSVKGRFTISRDNEKNTVYLQMNSLKPEDTAVYYCAARSLRYGRGMYYWGQGTQVTVSS | high polyreactivity
26 | QVQLVDSGGGLVQAGGSLRLSCAASGLSFLVNAMGWYRQAPGKERELVAAIDRDGGITYADSVKGRFTISRDNAKNTVYLQMNSLKPDDTAVSYCAADPSSYGRFTYDYWGQGTQVNVSS | low polyreactivity
27 | QVQLVDSGGGLVQAGGSLRLSCAASGLTFRRYAMAWYRQAPGKERELVAGISRGGSTYYADSVKGRFTISRDNAKNTVYLQMTSLKPEDTAVYYCAAYNRGTYPVQPVPYDMDYWGQGTQVTVSS | low polyreactivity
28 | QVQLVDSGGGLVQAGGSLRLSCAASGLTILPNAMGWSRQAPGNDRELVAAISWGDGNTYYADSVKGRFTISRDNAKNTVYLQMNSLKPEDTAVYYCAADVIKSRTYDYWGQGTQVTVSS | low polyreactivity
29 | QVQLVDSGGGLVQAGGSLRLSCAASGNIFTSYARGWYRQAPGKERELVAAISSGGRTSYADSVKGRFTISRDNAMNTVFLQMNSLKPDYTAVYYCAAYYRRWPREYYYWGQGTQVSVSS | high polyreactivity
30 | QVQLVDSGGGLVQAGGSLRLSCAASGRIFGAYTMGWYRQAPGKEREFVADITSGGSTDYADSVKGRFTISRDNAKNTVSLQMNSLKPEDTAVYYCAAGGWVASLYLYDYWGHGTQVTVSS | low polyreactivity
31 | QVQLVDSGGGLVQAGGSLRLSCAASGRIFGYNAMGWSRQAPGKERELVAAISSGGGTNYADSVKGRFTISRDNAKNTVYLQMNSLKPEDTAVYYCAVRRRRYHTYYRGYDYWGQGTQVTVSS | low polyreactivity
32 | QVQLVDSGGGLVQAGGSLRLSCAASGRIFHCYAMGWYRQAPGKERELVAAIRASGGRTYYADSVKGRFTISRDNAKNTVYLQMNSLKPEDTAVYYCAADSVKYGGDYWGQGTQVTVSS | high polyreactivity
33 | QVQLVDSGGGLVQAGGSLRLSCAASGRIFPYYDMGWYRQAPGKERELVAAITWNGGSTYYADSVKGRFTISRDNAKNTVYLQMNSLKPEDTAVYYWAVEPYYYGEDYWGQGTQVTVSS | low polyreactivity
34 | QVQLVDSGGGLVQAGGSLRLSCAASGRTFAWNAMGWYRQAPGKERELVAVITSGGSTNYADSVKGRFTISRDNAKNTVYLQMNSLKPEDTAVYYCATGDGPSLFDYWGQGTQVTVSS | low polyreactivity
35 | QVQLVDSGGGLVQAGGSLRLSCAASGRTFGRKAMGWYRQAPGERELVAVISRGGSTYYADSVKGRFTISRDNAKNTVYLQMNSLKPEDTAVYYCNADTVYTRTAPYDYCGQGTQVTVSS | low polyreactivity
36 | QVQLVDSGGGLVQAGGSLRLSCAASGRTFIFYAMGWSRQAPGKERELVAAISSGGSTDYADSVKGRFTISRDNAKNTVYLQMNSLKPEDTAVYFCKADTFQYPSTYDYWGQGNQVTVSS | low polyreactivity
37 | QVQLVDSGGGLVQAGGSLRLSCAASGRTFRSNAMGWYRQAPGKERELVAAITGSGGRTYYADSVKGRFTISRDNAKNTVYLQMNSLKPEDTAVYYCAARGRAHWHYDDWGQGTQVTVSS | high polyreactivity
38 | QVQLVDSGGGLVQAGGSLRLSCAASGRTIHYYAMGWYRQAPGKEREVVAVISSGGSTYYADSVKGRFTISRDNAKNTVYLQMNSLKPEDTAVYYCAALSSRTYKTGYYTYDYWGQGTQVTVSS | low polyreactivity
39 | QVQLVDSGGGLVQAGGSLRLSCAASGSIFGSNAMGWYRQAPGKERELVAAITWSDGSTYYADSVKGRFTISRDNAKNTVYLQMNSLKPEDTAVYYCATDYGYSWYDYWGQGTQVTVSS | low polyreactivity
40 | QVQLVDSGGGLVQAGGSLRLSCAASGSIFVSYTMGRYRQAPGKEREFVAAITKSGGSTYYADSVKGRFTISRDNAKNTVYLQMNSLKPEDTAVYYCAADWLHYVYEGYDYWGQGTQVTVSS | low polyreactivity
41 | QVQLVDSGGGLVQAGGSLRLSCAASGSIILLNAMGWYRQAPGKEREMVARIRINGGSTYYADSVKGRFTISRDNAKNTVYLKMNSLKPEDTAVYYCAADDTGPYSNWYDYWGQGTQVTVSS | low polyreactivity
42 | QVQLVDSGGGLVQAGGSLRLSCAASGSILLYYTMGWYRPAPGKERELVATMSSSGGSTYYADSVKGRFTISRDNAKNTVYLQMNSLKPEDTAVYYCNADYIYYGTTYEYWGQGTQVTVSS | low polyreactivity
43 | QVQLVDSGGGLVQAGGSLRLSCAASGSNFVWYAMGWYIQAPGKEREMVAAITWSGGSTYYADSVKGRFTISRDNAKNTVYLPMNSLKPEDSAVYYFNAVSYRYYSKLGSWGQGTQVTLSS | high polyreactivity
